In assay [1] the target is mUb-K240 VASP (VASP^CCC-SSA K240C crosslinked by bismaleimidoethane to ubiquitin^(1-74, G75C)) (UniProt P0CG48). Briefly: mass photometry; 15 nM VASP, room temperature, Refeyn One; margin of error of each mass about 20-25%.
Assay [2] concerns the target mUb-K286 VASP (VASP^CCC-SSA K286C crosslinked by bismaleimidoethane to ubiquitin^(1-74, G75C)) (UniProt P0CG48). Described as above.
Assay [3] has as its target chicken skeletal muscle actin (filaments, 10% Alexa Fluor 488 labeled) (chicken) (UniProt P68139). Description: single-molecule TIRF microscopy (dwell time); 1 nM TAMRA–VASP at the trailing barbed end of two-filament bundles; 1.5 µM actin (10% Alexa Fluor 488 labeled), 673 nM fascin, TIRF buffer, room temperature; 0.5 s/frame; one-phase decay fit of 1−cumulative frequency.

Assay [4] concerns the target mmUb-K240/K286 VASP (VASP^CCC-SSA K240C, K286C crosslinked by bismaleimidoethane to two ubiquitin^(1-74, G75C)) (UniProt P0CG48). Briefly: mass photometry; 15 nM VASP, room temperature, Refeyn One; margin of error of each mass about 20-25%.
Assay [5] deals with unmodified VASP (TAMRA–VASP; cysteine-light VASP^CCC-SSA with an N-terminal GGG motif) (human). The assay is described as above.

The term stoichiometry N denotes the number of molecules, sites or subunits per partner or assembly.

Substance “mUb-K240 VASP (VASP^CCC-SSA K240C crosslinked by bismaleimidoethane to ubiquitin^(1-74, G75C)) (from UniProt P0CG48 1-75) (complex)” displayed a stoichiometry N in assay [1] of 4.
In assay [2], “mUb-K286 VASP (VASP^CCC-SSA K286C crosslinked by bismaleimidoethane to ubiquitin^(1-74, G75C)) (from UniProt P0CG48 1-75) (complex)” displayed a stoichiometry N of 4.
In turn, “mmUb-K240/K286 VASP (VASP^CCC-SSA K240C, K286C crosslinked by bismaleimidoethane to two ubiquitin^(1-74, G75C)) (from UniProt P0CG48 1-75) (complex)” registered a lifetime τ1 at the barbed end in assay [3] of 1.14 s. The substance further returned a stoichiometry N in assay [4] of 4.
In assay [3], “unmodified VASP (TAMRA–VASP; cysteine-light VASP^CCC-SSA with an N-terminal GGG motif) (natural protein)” registered a lifetime τ1 at the barbed end of 1.17 s. The same substance came in with a stoichiometry N in assay [5] of 4.

Source of the values: publication PMC10917064.
